Data: publication PMC4797294

Target: T1, pVIc-TMR (UniProt P03274 240-250)
T1 chain: GVQSLKRRRCF
Assay: fluorescence polarization

B1: 30 bp dsDNA (dsDNA)
DNA 1: GACGACTAGGACGACGACGAGGATGACGAC
DNA 2: GTCGTCATCCTCGTCGTCGTCCTAGTCGTC
Kd: 262 ± 88 nM
